According to US5882887:

Tests used:
collagen (type III) [1] = biological target: collagen (type III)
collagen (type III) [2] = biological target: collagen (type III); remark: listed apart in the source

B1: recombinant Asp-Pallidipin (protein of SEQ ID NO:1) (protein)
chain: DEECELMPPGDNFDLEKYFSIPHVYVTHSRNGPKEQVCREYKTTKNSDGTTTTTLVTSDYKTGGKPYHSELKCTNTPKSGGKGQFSVECEVPNGNGGKKKIHVETSVIATDYKNYALLQSCTKTESGIADDVLLLQTKKEGVDPGVTSVLKSVNWSLDDWFSRSKVNCDNMK
collagen
  collagen-induced aggregation of human platelets in platelet-rich plasma (aggregometer, maximum value): 50 nM
Collagen (type III) [1]
  attachment of 51Cr-labelled MTLn3 rat mammary tumor cells to collagen-coated wells (cpm): 1080 cpm
Collagen (type III) [2]
  adhesion of metastatic tumor cells to collagen: 100 nmol/L
